# ± gives the uncertainty stated by the source.
# Experiment: protein stability index of a GFP-peptide fusion (yeast GPS) (PSI 1-4); higher = more stable; sorted into four equal gates, so the index is relative within each strain
# Summary of the method: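 Plasmids isolated from each sorting gate were PCR-amplified and Illumina-sequenced, and barcodes assigned the reads to strains. The gates, four of equal size, were set by GFP/Cherry fluorescence ratio on mid-log cultures in leucine-free medium. These cultures were yeast carrying a pooled library of tiled 17-residue yeast protein peptides fused downstream of GFP on a plasmid that also expresses Cherry. The protein stability index is the sum of every gate's read frequency times its gate number.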
Sequence,protein stability index (doa10∆),protein stability index (pdr5∆),protein stability index (san1∆),protein stability index (ubr1∆)
HLRKLLDGELDFDDFLK [RET1],3.04 ± 0.16,2.95 ± 0.1,2.81 ± 0.12,2.99 ± 0.092
INIKYLRLDGHTKSDER [SNF2],3.1 ± 0.083,2.11 ± 0.063,2.29 ± 0.098,2.79 ± 0.063
YGGDGLDPLEMEGNAQP [RPO31],3.39 ± 0.081,3.43 ± 0.09,3.28 ± 0.07,3.29 ± 0.089
LRPGRIDRKVEFSLPDL [RPT1],3.19 ± 0.098,3.35 ± 0.098,3.2 ± 0.16,3.18 ± 0.098
TAFKATVFFLIRVAETR [YJL039C/NUP192],1.53 ± 0.087,1.22 ± 0.063,1.12 ± 0.12,1.47 ± 0.048
NAVSFDTTFSDFKEVED [SRB4],3.13 ± 0.043,2.53 ± 0.039,2.6 ± 0.039,2.74 ± 0.039
FNNEKETEKFALERNWP [RPN12],2.68 ± 0.07,2.63 ± 0.055,2.76 ± 0.041,2.84 ± 0.037
SIAEEIPIAIVLKACGI [RET1],1.61 ± 0.056,1.49 ± 0.049,1.31 ± 0.089,1.66 ± 0.049
RAASAKIESSVESQFSA [RPS8A],3.11 ± 0.09,3.31 ± 0.083,2.53 ± 0.13,3.45 ± 0.14
QPSQQPQQAQQQPNPLH [GAL11],2.91 ± 0.05,2.95 ± 0.037,2.85 ± 0.035,2.97 ± 0.034
NIFSEAVKNKYNVGKQL [PRP28],1.55 ± 0.085,2.43 ± 0.11,1.82 ± 0.14,2.37 ± 0.076
RGFSKDLKSKADKLADM [RRP6],3.34 ± 0.28,,,
LLLAANTHLGARNVQVH [RPS0A],1.93 ± 0.04,1.21 ± 0.039,1.17 ± 0.061,1.13 ± 0.036
IFSVHGNTVVDGEGKVD [YCG1],3.12 ± 0.2,3.46 ± 0.18,,
KVESQETLNDTIERSLI [YCS4],2.73 ± 0.092,2.99 ± 0.071,2.96 ± 0.072,2.97 ± 0.057
NYAMTRNILHNTVPQVT [SRB5],1.7 ± 0.055,2.15 ± 0.061,1.66 ± 0.08,1.74 ± 0.038
LGIALIALGEDIGKEMS [RPN1],3.01 ± 0.081,3.01 ± 0.091,2.9 ± 0.1,3.02 ± 0.06
CAERVKIQQQQPGYADL [QCR6],3.29 ± 0.13,2.99 ± 0.19,,3.09 ± 0.27
IFIRQLKENEENEDGNI [BRR2],3.5 ± 0.094,3.37 ± 0.19,3.2 ± 0.067,2.01 ± 0.087
KTGITKKDEDEEADEDM [PRE9],3.37 ± 0.13,3.7 ± 0.26,3.5 ± 0.11,2.95 ± 0.23
AAQAQAQAQAQAQAQAQ [GAL11],2.69 ± 0.045,2.9 ± 0.043,2.65 ± 0.04,2.95 ± 0.068
MQRHVKVDGKVRTDTTY [RPS4A],3.26 ± 0.1,3.28 ± 0.083,3.03 ± 0.088,3.06 ± 0.063
PLRMETIPILESDSKAT [DSN1],2.14 ± 0.062,2.54 ± 0.084,2.59 ± 0.14,2.27 ± 0.044
AHMWPRVHDQPLIWQLL [POP3],1.42 ± 0.12,1.64 ± 0.12,1.44 ± 0.23,1.51 ± 0.11
KENELLFGEKSILGKFC [YCS4],1.55 ± 0.04,1.72 ± 0.051,1.59 ± 0.11,1.73 ± 0.039
PYFDYIFNDILAHVDQI [YJL039C/NUP192],1.9 ± 0.11,1.89 ± 0.077,2.39 ± 0.099,1.94 ± 0.054
DNEDSDNLFGETESSVS [SWI3],3.48 ± 0.14,3.07 ± 0.081,,2.93 ± 0.085
